The record followed here is article PMC2708785 (Biochemistry, 2009).

The data set “crystal structure” concerns the molecule itself. Kind of data set: crystal structure.
The data set “AUC” deals with the molecule itself. In words: AUC.

B1: 2-methyl-3-hydroxypyridine-5-carboxylic acid oxygenase (MHPCO) from Mesorhizobium loti MAFF303099, with N-terminal 6xHis tag (enzyme, UniProt Q988D3 1-379, looked up)
chain: MANVNKTPGKTRRAEVAGGGFAGLTAAIALKQNGWDVRLHEKSSELRAFGAGIYLWHNGLRVLEGLGALDDVLQGSHTPPTYETWMHNKSVSKETFNGLPWRIMTRSHLHDALVNRARALGVDISVNSEAVAADPVGRLTLQTGEVLEADLIVGADGVGSKVRDSIGFKQDRWVSKDGLIRLIVPRMKKELGHGEWDNTIDMWNFWPRVQRILYSPCNENELYLGLMAPAADPRGSSVPIDLEVWVEMFPFLEPCLIEAAKLKTARYDKYETTKLDSWTRGKVALVGDAAHAMCPALAQGAGCAMVNAFSLSQDLEEGSSVEDALVAWETRIRPITDRCQALSGDYAANRSLSKGNMFTPAALEAARYDPLRRVYSWPQ
modifications: selenomethionine in place of methionine (SeMet MHPCO)
B1: the “stoichiometry N” value was determined as 2 in the data set “crystal structure” and 4 in “AUC”.

In general, stoichiometry N refers to the number of molecules, sites or subunits per partner or assembly.
